Experimental data: patent US20240228562A1 (Pieris, published 2024)

T1: mouse CTGF (Abbexa) (mouse, UniProt P29268 26-348, limits assumed)
T1 construct: also called Murine CTGF; mCTGF
T1 sequence (looked up): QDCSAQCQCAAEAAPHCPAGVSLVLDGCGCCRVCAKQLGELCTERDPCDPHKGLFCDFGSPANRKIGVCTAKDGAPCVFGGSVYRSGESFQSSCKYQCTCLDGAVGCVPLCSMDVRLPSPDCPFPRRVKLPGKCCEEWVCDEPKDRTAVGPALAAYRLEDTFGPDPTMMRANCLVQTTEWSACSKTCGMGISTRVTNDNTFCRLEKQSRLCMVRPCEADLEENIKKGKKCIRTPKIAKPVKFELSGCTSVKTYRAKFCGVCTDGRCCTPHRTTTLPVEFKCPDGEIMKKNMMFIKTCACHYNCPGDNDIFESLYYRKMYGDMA

T2: cynomolgus CTGF (cynomolgus, UniProt I7G525 27-349)
T2 construct: also called cyCTGF
T2 sequence: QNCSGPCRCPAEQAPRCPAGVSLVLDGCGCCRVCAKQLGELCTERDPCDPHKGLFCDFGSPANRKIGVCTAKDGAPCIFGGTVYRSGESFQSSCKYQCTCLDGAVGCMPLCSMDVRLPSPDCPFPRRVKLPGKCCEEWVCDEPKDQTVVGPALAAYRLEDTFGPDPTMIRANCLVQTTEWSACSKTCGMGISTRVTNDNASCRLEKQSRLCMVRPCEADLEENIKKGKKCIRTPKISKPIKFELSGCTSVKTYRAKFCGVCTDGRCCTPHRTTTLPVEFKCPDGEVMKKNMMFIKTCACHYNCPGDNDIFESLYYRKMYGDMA

B1: lipocalin mutein of SEQ ID NO: 15 (designed binder)
chain: QDSTSDLIPAPPLSKVPLQQNFQDNQFQGKWYVVGLAGNAILREDKQPAKMFATIYELKEDKSYDVTSVRFEAKSCKYTIKTFVPGSQPGEFTAGYIKSAPGQTSTLVRVVSTNYNQHAMVFFKHVTQNREIFVITLYGRTKELTSELKENFIRFSKSLGLPENHIVFPVPIDQCIDG
notes: also called hNGAL mutein; not shown: C-terminal His-tag
B2: lipocalin mutein of SEQ ID NO: 25 (designed binder)
chain: QDSTSDLIPAPPLSKVPLQQNFQDNQFHGKWYVVGMAGNFRLREDKDPSKMGATIYELKEDKSYNVTQVQFDDKKCLYVIETFVPGSQPGEFTLGAIKSFPGFTSQLVRVVSTNYNQHAMVFFKKVYQNREVFWITLYGRTKELTSELKENFIRFSKSLGLPENHIVFPVPIDQCIDGSAWSHPQFEK
notes: Parent hNGAL mutein; also called hNGAL mutein
B3: lipocalin mutein of SEQ ID NO: 29 (designed binder)
chain: QDSTSDLIPAPPLSKVPLQQNFQDNQFHGKWYVVGWAGNIKLREDKDPFKMSATIYELKEDKSYNVTEVVFEQKKCHYIIKTFVPGSQPGEFTLGDIKSPPGETSSLVRVVSTNYNQHAMVFFKKVFQNREFFWITLYGRTKELTSELKENFIRFSKSLGLPENHIVFPVPIDQCIDGSAWSHPQFEK
notes: as for B2
B4: lipocalin mutein of SEQ ID NO: 9 (designed binder)
chain: QDSTSDLIPAPPLSKVPLQQNFQDNQFHGKWYVVGLAGNKILRIDKQPAKMFATIYELKEDKSYDVTSVRFEARSCSYTIKTFVPGSQPGEFTAGNIKSAPGQTSTLVRVVSTNYNQHAMVFFKHVSQNRETFVITLYGRTKELTSELKENFIRFSKSLGLPENHIVFPVPIDQCIDGSAWSHPQFEK
notes: as for B2

Key:
mouse CTGF (Abbexa) = biological target: T1, mouse CTGF (Abbexa); assay: SPR (Biacore)
In short: (§1)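 Lipocalin muteins injected at 25 °C over CTGF either Fc-tagged and captured by anti-human IgG-Fc (0.25-2.5 μg/mL in HBS-EP+, 180 s) or amine-coupled directly to a CM5 chip. Association 180 s, dissociation 900-3600 s, flow 30 μL/min.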

cynomolgus CTGF = biological target: T2, cynomolgus CTGF; assay: SPR (Biacore)
In short: as §1

Binder | Kd (mouse CTGF (Abbexa)) [nM] | koff (mouse CTGF (Abbexa)) [s⁻¹] | kon (mouse CTGF (Abbexa)) [M⁻¹ s⁻¹] | Kd (cynomolgus CTGF) [nM] | koff (cynomolgus CTGF) [s⁻¹] | kon (cynomolgus CTGF) [M⁻¹ s⁻¹] | binding result (mouse CTGF (Abbexa))
B1 | 0.349 | 4.51e-05 | 129000 | 0.707 | 7.57e-05 | 107000 | –
B2 | – | – | – | – | – | – | no binding (tested: typically 0.43-2000 nM)
B3 | – | – | – | – | – | – | no binding (tested: typically 0.43-2000 nM)
B4 | 6.26 | 0.000832 | 133000 | – | – | – | –
